# Measurements: the RNAGym collection of RNA variant scans (doi:10.1073/pnas.2313332121)
# Variants at the floor of the assay were thinned out.
# B1: TPR 5TU (parent)
# chain: GGAUCUUCUCGAUCUAACAAAAAAGACAAAUCUGCCACAAAGCUUGAGAGCAUCUUCGGAUGCAGAGGCGGCAGCCUUCGGUGGCGCGAUAGCGCCAACGUUCUCAACUAUGACACGCAAAACGCGUGCUCCGUUGAAUGGAGUUUAUCAUG
# Variants of: B1
# Experiment: polymerase ribozyme fitness, log enrichment relative to wild type (log ratio); higher = more active; in vitro selection for triplet polymerase activity
# How it was run: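 Input and output libraries were sequenced on Illumina after a single in vitro selection round, run in triplicate on PCR-built, transcribed mutant libraries of each subunit of a heterodimeric triplet polymerase ribozyme. Selection annealed libraries to a biotinylated primer, the partner subunit and triplets, incubated them frozen at −7 °C, then gel-excised extended constructs for streptavidin-bead capture and RT-PCR. Genotypes with ≥10 input reads and ≥1 read per output were kept. Fitness is the logarithm, taken in base 2, of genotype enrichment divided by wild-type enrichment, using inverse-variance-weighted replicate averages.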
row,Variant,polymerase ribozyme fitness (log ratio)
1,U15G C57A G86U A122G,-1.4
2,U15C A22G,1.56
3,U15A A29C C38U A119U G126A U144A C149G,≤ -4.2
4,C14U U45A A91U U127G,≤ -4.2
5,U15A C38A A41C C75U U135C,-3.63
6,U15A A49U A73G U82G A107U,≤ -4.2
7,C14U G50C U56G C69U C118U,≤ -4.2
8,A16C A26U,-2.62
9,U15C A40U U53A G84C,-1.96
10,U15C C38U A49G C103G G141U,≤ -4.2
11,A16C A37C A40C C63U A64U C69G C76U G141C,≤ -4.2
12,U15A C27G U55A C57G G94U C105U G136A G143U,≤ -4.2
13,U15C A47C C54U A89U C95G,-2.01
14,U15A A17C A23U U55A G84A G92A G94A U102G C116G,≤ -4.2
15,U15G G84A C96A A119U,-2.08
16,U15A A39U C96U C114A A122G C123U C125A,-4.11
17,U15C U55G,0.263
18,A16C U55A,-1.28
19,C14U G50U,-1.15
20,U15A A24G G25U C32A U56A G59C U82G C103G,≤ -4.2
21,U15G G34A C75A A150U,≤ -4.2
22,U15C C54A G62A U78A G88C A113C A150U,≤ -4.2
23,U15A A17C C32G A60G C99U C116U,≤ -4.2
24,U15A A60G G80U C96U A122C,-1.4

row,Variant,polymerase ribozyme fitness (log ratio)
1,U15C A26C C36U G84A A147U,-3.47
2,U15C C75A C96G,≤ -4.2
3,U15A C36U C87U G124U A137C,-4.03
4,U15G C85U,-0.0947
5,U15G A98G A122C G124U,-1.76
6,A16C G84U A120G,-2.78
7,U15G A47C G83C,-1.85
8,U15A G74U C79G,≤ -4.2
9,U15C C36A A60U C85G C116U,≤ -4.2
10,U15C C38U G86U A91U G126U U134G A142G,≤ -4.2
11,A16C A20G A24U A40G G48U G58U U77C C85U,≤ -4.2
12,A16C A40C G83A A97G,-0.914
13,U15C C38A U61A C87U A122G,-2.73
14,U15G A20U G25U C87U C103G U104G A121G G126U U134C C149A,≤ -4.2
15,A16C C87U G128U,≤ -4.2
16,U15A U55A G88C U145G,-3.86
17,A16C A17C A20U A30U A37C U55G C93G C103A A119G,≤ -4.2
18,U15C C51A G86U,-1.6
19,U15G A39U C72U A91U A147U A150C,≤ -4.2
20,U15C A40C C93A C95U C116A A121U,-1.18
21,U15G A24C C35A A107U A147U,≤ -4.2
22,U15G G25U,-3.22
23,C14U G92A C103G,≤ -4.2
24,C14U G92C A150U,-4.2

row,Variant,polymerase ribozyme fitness (log ratio)
1,U15C A16G G59U A60G G92A C116U,-0.967
2,A16C A37U G58A G80U C85G C93G A150G,≤ -4.2
3,A16G A20C A22C G25A A37U A40C C75U C96U U130G A138U U145G,≤ -4.2
4,U15G A39G U53A,-4.01
5,U15G A28G C79A G124U,≤ -4.2
6,U15C C93U A122U,-0.873
7,U15G A17G C38A G62C G81A C85G,≤ -4.2
8,U15A A142C,-0.894
9,U15G G34U A107C A115U C118A U134C U135G A150G,≤ -4.2
10,A16C U45G A106G,-0.613
11,U15G C18G G50C U53G G92A U148G,≤ -4.2
12,U15A U145C,0.0727
13,A16C A49U C85A G126U U139G,-3.47
14,A16C A52U C85G A122G G124C,≤ -4.2
15,U15A C57A C76U G84C,-1.52
16,U15A A29G U78A G88A G126U U135G U148G,≤ -4.2
17,U15C U145C A150G,-0.684
18,A16C G25U U61G G88U C93U G136A A147C U148C,≤ -4.2
19,U15G A26U A52G G83A U102G,≤ -4.2
20,U15G C18U U56C G83A C87U,-1.58
21,A16C G94A C116G,-0.496
22,A16C A19U A73G C87A,≤ -4.2
23,U15A C32A U56G G58U G84U C108U U139G,≤ -4.2
24,U15C C18U C85G C118U G136U,-3.19

row,Variant,polymerase ribozyme fitness (log ratio)
1,U15C U53A A98G C105G U146G,≤ -4.2
2,A16C U33C U77A,≤ -4.2
3,U15G A89C A119U,-0.888
4,U15G C99U A142U,-1.77
5,A16C U61A G67A C87U A107U,≤ -4.2
6,A16G A17G C57U A64C A91U C95U C118G G124A G126A G133C,≤ -4.2
7,A16C A22U G62A G74A G81C A106G G141C,≤ -4.2
8,U15G C51U G86U A89U C114U,≤ -4.2
9,A16C C51U G84U U135A,-3.41
10,U15A A39C C123U A137C U151C,≤ -4.2
11,U15A G50U C95U C99G C105U A115G A150C,≤ -4.2
12,U15A A21C A73G C95U U135G A138G U139C,≤ -4.2
13,U15G C132A,-2.26
14,A16C A17G C96G C118U,-1.74
15,A16C A17G C57U G86A G133U,≤ -4.2
16,C14U U31A A64C C75A C93G C103U,≤ -4.2
17,A16C U55A A142G A150G,-3.06
18,A16C A40U C93A A122G G141C,≤ -4.2
19,U15G G48A U53A A73G C85A,≤ -4.2
20,U15G A47C C57U C96A C108G,≤ -4.2
21,A16C G59C,-0.987
22,A16C G88A C116G,-4.19
23,A16C G59A C85G G126U,-2.76
24,U15C A17U A60G G62C A91U,≤ -4.2

row,Variant,polymerase ribozyme fitness (log ratio)
1,U15C A22G A47C U55A G88C U139C,≤ -4.2
2,U15G C51U A98U A115G G136A,-2.29
3,U15G C43U G59A G94U,≤ -4.2
4,U15G A22C A60G A73U C76G C103A A122U U151A,≤ -4.2
5,C14U U56A,-1.8
6,A16C A113U C118G,-3.27
7,A16G A19C G80C C87A A150U,≤ -4.2
8,C14U G62C C75A C93G,≤ -4.2
9,U15C A24G C76U U145A,≤ -4.2
10,A16G A17G C18A G58C A60G C95A U144C A150C,≤ -4.2
11,C14U G74A G94A A122G,≤ -4.2
12,C14U G81A,-1.14
13,A16C U31C A37C A40C C95G G100A C114U,≤ -4.2
14,U15G A22U U56A A66C G117A A138G U146C,≤ -4.2
15,A16C A26U G42U A47C U55A U90G A98G,≤ -4.2
16,A16C A20C G84U A97U U130C,-4.17
17,A16C A17G G58U C87A C93A,≤ -4.2
18,U15C C93G,-2.27
19,U15G G42A C75A G83U A122U G128A,≤ -4.2
20,C14U U15G U45A G58U C75G U135C,≤ -4.2
21,U15C A49G C85U U109G,-0.987
22,A16C G25C,-2.46
23,U15G A21C A49C C54U G86A,≤ -4.2
24,U15C A16C C85U C118A,-2.79

row,Variant,polymerase ribozyme fitness (log ratio)
1,U15G U56G U77C C87G G94A U104G A106U C123U,≤ -4.2
2,U15G C96A,-0.302
3,U15G C96U,-1.19
4,U15G C54U A60U C75G A113G,≤ -4.2
5,U15A G94A,-0.258
6,U15G A39U U82G G84A G112U,≤ -4.2
7,U15G A16U A41C A52C G81C G83U A106U U127A,≤ -4.2
8,A16C U44A C69G C75G A91U C114G G117C,≤ -4.2
9,U15A C38U G58A U61G G68A G83A C87G A106C U145C,≤ -4.2
10,A16C C57U C129U G143A,-1.91
11,U15C A19C A91U,-3.68
12,A16C U31A C32A G92C A97C A98C C103A C116U C125U,≤ -4.2
13,U15C A122U,0.45
14,U15G C72U C87A U134A A150C U151G,≤ -4.2
15,U15A G48C G83U,-2.41
16,U15G A37U U55A U56C C87G C95U A106G G136A U145G,≤ -4.2
17,U15C G84C C125U U134G A150U,≤ -4.2
18,A16G A17G A19C G50A,0.928
19,U15C G34C C57A G84U A98U,-2.33
20,C14U G94C A107G G117A A142U,≤ -4.2
21,A16C C36A G46C G68C C93U G112U A115C A122U G143U,≤ -4.2
22,U15G G50C C69U C76A G84U,≤ -4.2
23,C14U U145A,-1.55
24,U15C A21C U56C G83A,-0.11

row,Variant,polymerase ribozyme fitness (log ratio)
1,U15G G88A,-4.08
2,U15G A20C G42U A52G C85U C93G C103A,≤ -4.2
3,U15G C27U G84A,-1.78
4,U15G A26U C38G G42A U44A C95G C99U,≤ -4.2
5,U15G C27A U146A,≤ -4.2
6,U15C A19G C69G C76A C79G G84U C95A A110U,≤ -4.2
7,C14U G67A U151C,≤ -4.2
8,U15A A26C G34U C105G G143C,≤ -4.2
9,U15A A40C,0.538
10,C14U G83U G88C A147G,≤ -4.2
11,A16C G84A C105G C114U C125A U144A U151G,≤ -4.2
12,U15G G50C C95A C99U A120U,≤ -4.2
13,A16C G58C A60G G83U C116U,-0.784
14,U15C A37U C118U,-0.404
15,A16C G94A,-1.78
16,U15A A20C G59A A60U C93G C105U G133U,≤ -4.2
17,A16G A17C U31A U55G C57G A115C U135A,-3.86
18,A16C A17U A20U C38A C57U A60C G84A C116G,≤ -4.2
19,C14U U135C,-3.88
20,U15C A20G A97G G140A,-3.64
21,U15A A19U C57G G86A,-1.7
22,U15A A73C G94A,-3.39
23,A16C G141A,-0.406
